Laboratory results taken from article PMC7892883, “Transcription activation by a sliding clamp” (Nature Communications, 2021).

B1: bacteriophage T4 gp33 (coactivator) (natural protein)
chain: MTQFSLNDIRPVDETGLSEKELSIKKEKDEIAKLLDRQENGFIIEKMVEEFGMSYLEATTAFLEENSIPETQFAKFIPSGIIEKIQSEAIDENLLRPSVVRCEKTNTLDFLL
notes: source: E. coli BL21(DE3), pET28a-NH-gp33, purified (Ni-NTA, Mono Q, Superdex 200)
B2: bacteriophage T4 gp55 (promoter specificity factor) (natural protein, UniProt P04524 1-185, looked up)
chain: MSETKPKYNYVNNKELLQAIIDWKTELANNKDPNKVVRQNDTIGLAIMLIAEGLSKRFNFSGYTQSWKQEMIADGIEASIKGLHNFDETKYKNPHAYITQACFNAFVQRIKKERKEVAKKYSYFVHNVYDSRDDDMVALVDETFIQDIYDKMTHYEESTYRTPGAEKKSVVDDSPSLDFLYEAND
notes: also called full-length gp55; wild-type protein
B3: T4 late promoter EMSA scaffold (dsDNA)
DNA 1: CTAATAAAGAGCTCAGCACTATTACTGAGAGTATAAATACTCCTGATACTGAAGCAGCCGGACT
DNA 2: AGTCCGGCTGCTTCAGTATCAGGAGTATTTATACTCTCAGTAATAGTGCTGAGCTCTTTATTAG

Assays:
[1] = target: T1, E. coli RNA polymerase β subunit (E. coli, UniProt P0A8V2 1-1342); assay: cryo-EM structure; 0.8 uM E. coli RNAP incubated with 0.8 uM gp55, 0.8 uM gp33 and 0.8 uM gp45 homotrimer 10 min on ice, then with nucleic acid scaffold, gp44/gp62 complex, gp32 and dATP 20 min at 30 °C in transcription buffer; 3D classification gave RPo-gp55 (3.6 Å) and TAC-gp45 (4.5 Å); promoter DNA present; conditions: both partners purified
T1 construct: RNA polymerase β subunit, E. coli; holds the β flap with the flap tip helix (FTH); Stood in the structures as a subunit of RNAP core; also called RNAP β subunit; source: E. coli BL21(DE3) with plasmid pIA900, purified as part of RNAP core enzyme

[2] = target: T2, E. coli RNA polymerase β′ subunit (E. coli, UniProt P0A8T7 1-1407); assay: as above; conditions: both partners purified
T2 construct: RNA polymerase β′ subunit, E. coli; Stood in the structures as a subunit of RNAP core; also called RNAP β′ subunit; source: E. coli BL21(DE3) with plasmid pIA900, purified as part of RNAP core enzyme

[3] = target: E. coli RNA polymerase core;gp55 H154X (C-terminal region truncated) (Escherichia coli;bacteriophage T4, UniProt P0A7Z4;P0A8V2;P0A8T7;P0A800;P04524 1-329;1-1342;1-1407;1-91;1-153, |); assay: EMSA; heparin 0.1 mg/ml challenge; forms RPo as effectively as full-length gp55; EMSA: 0.4 uM gp55, 0.2 uM RNAP, 0.2 uM DNA in 10 mM HEPES pH 7.5, 50 mM KCl, 5% glycerol, 0.1 mg/ml heparin; DNA 20 min at 37 C, heparin 1 min at 22 C; 5% PAGE; conditions: protein: recombinant;recombinant; tags: beta' C-terminal His tag (stated for pull-down);none stated; chain copies: 2;1;1;1;1; label: none (gel stained); blunt

Row | Binder | binding result [1] | binding result [2] | binding result [3]
1 | B1 | binds | binds | –
2 | B2 | – | binds | –
3 | B3 | – | – | binds
